How the values were obtained:
[1] = biological target: Human serum albumin (HSA) (Homo sapiens, UniProt P02768 P02768:25-609); assay: selectivity control, 20 nM HSA in PBS; methylene blue release fluorescence; values only in figure; settings: label: methylene blue (non-covalently adsorbed)
Experimental: (§1) In this example, the fabricated MB/aptamer/nanomotors of EXAMPLE 1 were guided by a magnetic field into solutions (human serum samples) containing various concentration of VEGF165 to react with the fabricated MB/aptamer/nanomotor for about 40 minutes. MB can specifically bind with guanine bases in ss-DNA and the used aptamer herein as a type of ss-DNA riches of guanine bases. The fabricated MB/aptamer/nanomotors were stored at about 4° C. in the refrigerator when they were not in use. Then, the MB/aptamer/nanomotors biosensor was guided to solutions containing the various concentration of VEGF165 tumor marker. Upon exposing MB/aptamer/nanomotor with VEGF165, the adsorbed MB to aptamers released to the solution and let to increase the fluorescence signal of MB. The proposed nanomotor may be used for ‘on-the-fly’ interaction of biological targets such as VEGF165 by functionalizing the gold surface of the nanomotor with various bio-receptors.
In addition, to evaluate the selectivity of the proposed biosensor, some of bio-molecules such as human serum albumin (HSA), bovine serum albumin (BSA), glucose (G), urea (U), dopamine (D) and human immunoglobulin G (HIgG) were used as the potential interferences to evaluate the specificity and the results were shown in FIG. 7.

VEGF165 = VEGF165 (UniProt P15692-4 P15692-4:27-191); assay: methylene blue release from aptamer/nanomotor, fluorescence increase; linear response 2.5-30 nM VEGF165; human serum samples or PBS, 40 min; settings: chain copies: 2; label: methylene blue (non-covalently adsorbed)
Experimental: as §1
In FIG. 6B, relative fluorescence changes are calculated by F/F0, where F0 (7.8) and F are the fluorescence intensity without and with VEGF165, respectively, and excitation wavelength was 625 nm.

Sequence of VEGF165 (P15692 other isoform, or with tags, fused parts or gaps): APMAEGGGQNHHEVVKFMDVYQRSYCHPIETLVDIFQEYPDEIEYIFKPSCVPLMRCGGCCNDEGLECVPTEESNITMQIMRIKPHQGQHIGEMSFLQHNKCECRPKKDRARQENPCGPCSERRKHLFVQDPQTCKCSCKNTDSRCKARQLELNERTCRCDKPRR
Sequence of Human serum albumin (HSA) (P02768 25-609, one chain of several): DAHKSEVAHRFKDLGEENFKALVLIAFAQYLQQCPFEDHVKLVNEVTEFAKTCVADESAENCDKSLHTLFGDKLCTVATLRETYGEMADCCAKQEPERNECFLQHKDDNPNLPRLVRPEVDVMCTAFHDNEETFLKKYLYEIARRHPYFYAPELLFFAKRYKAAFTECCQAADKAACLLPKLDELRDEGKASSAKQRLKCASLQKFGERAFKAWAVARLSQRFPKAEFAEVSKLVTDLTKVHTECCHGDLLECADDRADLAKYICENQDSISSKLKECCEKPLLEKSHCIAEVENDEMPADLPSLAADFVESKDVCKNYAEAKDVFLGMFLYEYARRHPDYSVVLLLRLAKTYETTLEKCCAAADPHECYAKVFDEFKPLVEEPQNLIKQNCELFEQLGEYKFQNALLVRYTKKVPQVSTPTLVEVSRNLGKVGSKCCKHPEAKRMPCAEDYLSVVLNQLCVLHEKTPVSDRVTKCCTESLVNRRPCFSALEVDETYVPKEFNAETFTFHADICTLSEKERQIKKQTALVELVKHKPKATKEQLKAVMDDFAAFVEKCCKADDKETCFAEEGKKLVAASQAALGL

## TTTCCCGTCTTCCAGACAAGAGTGCAGGG (ssDNA, 5'-SH (thiol), immobilised on Au segment of nanomotor) [anti-VEGF DNA aptamer]
[1]
  binding result: no binding
VEGF165
  binding result: binds

From patent US20180087116, “METHODS AND BIOSENSORS FOR TUMOR DETECTION” (published 2018)
